Assay results taken from paper PMC10119177 (2023).

Molecular target: recombinant IgI3 domain of the S. pyogenes R28 protein (R28-IgI3), wildtype (S. pyogenes) (UniProt Q9XDB6)
Assay: ITC; iTC200, 25 °C, 16 injections of 2.42 µl, 30 mM Tris-HCl, 150 mM NaCl, pH 7.5, 750 rpm, in duplicate; 500 µM rCEACAM-N domains in the syringe, 50 µM rR28-IgI3 (methods)

Substance | Kd
rCEACAM1-N N97A (from UniProt P13688 34-141) (domain or fragment) | 210 nM
rCEACAM1-N Q44A (from UniProt P13688 34-141) (domain or fragment) | 920 nM
rCEACAM1-N Q89A (from UniProt P13688 34-141) (domain or fragment) | 687 nM
rCEACAM1-N V96A (from UniProt P13688 34-141) (domain or fragment) | 116 nM
